Source: the supplement of paper PMC9170038

Test system: K4 kissing-loop RNA reporter
Test: apparent KD of K4 kissing-loop reporter; higher = weaker reporter binding
Details: Eterna round: R107
Protocol: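 RNA-MaP round R107: designed RNA switches with theophylline, tryptophan, arginine or FMN aptamers are transcribed on-chip within common flanks. They are titrated with a labelled K4 kissing-loop RNA reporter in RNA-MaP buffer (100 mM Tris pH 7.5, 80 mM KCl, 4 mM MgCl2), without ligand or with the indicated ligand. Median apparent KD per design.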

[1] = input ligand: theophylline 20 uM
[2] = input ligand: tryptophan 2.4 mM
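Further: bound reporter read as fluorescence of individual clusters on recovered sequencing chips by microscopy, with normalized cluster intensities fitted with a binding model.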

Row | Sequence | apparent KD of K4 kissing-loop reporter (input ligand: FMN 200 uM) [nM] | apparent KD of K4 kissing-loop reporter (input ligand: arginine 13.2 mM) [nM] | apparent KD of K4 kissing-loop reporter (input ligand: none) [nM] | apparent KD of K4 kissing-loop reporter [1] [nM] | apparent KD of K4 kissing-loop reporter [2] [nM]
1 | AAGCCAGAGAUUGCUGCGGGUUCCAGAGAUACCAGCCGUAUUGAAGGCCCUUGGCAGCUCGAGUGAUGUUCGAGCCGUCUCCGGC [Onte] | 111 | 110 | 114 | 116 | 113
2 | AAGGCAGUUCGAGGAUAUCACAUACACUCCUUGAAUCAAGGAGUGAUGUUCCUUGAAGUGUAUGCAUGAGAAGGCGAAUUGCCUU [FMN B SS t5] | 113 | 103 | 109 | 103 | 101
3 | AAGGGCGAGGUAACGUGGAUAUCUCGUCGCAAGGAUAUCUGGAAACAGAGAAGGUGCUACAUUACCGGCAGUGAUGUUGCUGACC | 887 | 312 | 573 | 278 | 261
4 | AAGGUAUCACCAACUUGCAACAAAGGUGAUACCAGCAUCGAAAGAUGCCCUUGGCAGCACCAACUUGCAGUGAUGUUGCAAGUAA [(T)'-(H)'-(T1)-(T2)-(H1)-(H2)_Design10] | 170 | 161 | 159 | 186 | 170
5 | AAGGUCACUACUACAGUGAUGUUGUAGGAGCAGGAUAUGCAGAAAUGCAGAAGGGCUCGCUCCAGGUGACCGAAUGAAACAUUCA [Omei KL FMN A SS A v3] | 333 | 504 | 573 | 475 | 501
6 | AAGGUUCGUGGAAGGAGCGCCCGUGCGACUCGUUCAGUAAGUGAAGUCCGAGUGAUGUUCGGGCAGGUAGGUCGCCACGGGCAAA [Usontezaon] | 196 | 137 | 160 | 123 | 157
7 | AAGGUUGUGCAUGGGAGUGAUGUUCCCACGCAGGAUAUCGCUCACGCGAGAAGGGCGAGCACAACCGCUCAAGAAACUUGAGCAA [Omei KL FMN A SS C v2] | 133 | 118 | 133 | 106 | 126
8 | AAGUCACAGGCAGGAUAUGCUUAGUAAUAAGGCCAUAUAUACGUAUAGAGUGAUGUUUUGUACCAGGCAGAAGGGCUACAUCCGU [FMN B Excl V3 (+2GCs)] | 876 | 503 | 882 | 650 | 597
9 | AAGUCACAGGCAGGAUAUGCUUAGUAUUAAGGCCAUAUAUACGUAUAGAGUGAUGUUUUGUACCAGGCAGAAGGGCUACAUCCGU [FMN B Excl V4 (+U)] | 930 | 440 | 656 | 645 | 463
10 | AAGUCAUAGGCAGGAUAUGCAUUGUAGUAAGGCAAUAUAUACGUAUAGAGUGAUGUUUUGUACCAGGCAGAAGGGCUACAUCAGU [FMN B Excl V11 (+G)] | 826 | 367 | 645 | 868 | 492
11 | AAGUCUCGUUAAUUCGUGGUUUCGAUCGAUACCAGUAGCGAGAGUUACCCUUGGCAGCGAAAUGAGUGAUGUUCAUGAAAGAAGA [KL-XTheoA10] | 65.1 | 101 | 64.6 | 107 | 60
12 | AAGUGAUGUUGUAGUGAUGUUGUGAUGUUGCAGGAUAUAUAGUGAUGUAGAAGGGUAUGUACUUAUUUUUUUUUUGAGUUUUGUU [xgghzrmullin] | 82 | 32.3 | 60.2 | 47.1 | 68.3
13 | AAGUGUGUGGCGGCCGCCACUAGUCUCCAGUGAUGUUGGAGAUAUCACGUAAGUGAUAUCCGACAUAGGACCGGGCCAUAUAGAA [Same State - Tryptophan B (Freestyle 21)] | 601 | 318 | 688 | 556 | 474
14 | AAUAAAAUCACGGCCGCCACUGAUACUAGUAUUAGCAGUGAUGUUGCUAUGUAUAAUUUAUUAAAUAGGACCGGGUGAAUAUUUA [#25 K4 Tryptophan B Exclusion] | 298 | 220 | 267 | 350 | 256
15 | AAUAAAAUCACGGCCGCCACUGAUGCUAAUAUUAGCAGUGAUGUUGCUAUGUAUAUUUUAUUUAACAGGACCGGGUGAAUAUUUA [JR_ExcTryptoB_Sub014] | 225 | 184 | 228 | 212 | 133
16 | AAUAAAAUCACGGCCGCCACUGAUUUUUUUAUUAGGAGUGAUGUUCCUAUGACUAUAUUAUUUAACAGGACCGGGUGAAUAUUUA [JR_SSTryptoB_Sub023] | 79.6 | 97.5 | 87.4 | 93.3 | 74.5
17 | AAUAAAAUCACGGCCGCCACUGAUUUUUUUAUUAGGAGUGAUGUUCCUUUGUCUAUAUACCUUAACAGGACCGGGUGAAUAUUUA [JR_SSTryptoB_Sub022] | 54.3 | 93.4 | 67.4 | 95.5 | 52.1
18 | AAUAAAAUCACGGCCGCCACUGGUACUAGUAUUAGCAGUGAUGUUGCUAUGUAUAAUUUAUUAAAUAGGACCGGGUGAAUAUUUA [#27 K4 Tryptophan B Exclusion] | 326 | 281 | 238 | 233 | 208
19 | AAUAACUAGUAUAUUUGUAAUAAAACAGAUACCAGUGAUAAUAAACACCCUUGGCAGCUGAUCGAGUGAUGUUCGUUUAUUUUAA [JR_SSTheophyA_Sub004] | 102 | 96.5 | 124 | 130 | 78.5
20 | AAUAACUAGUAUUUUUUUAAUAAUACAGAUACCAGUGAUAAUAAACACCCUUGGCAGCUGAUCGAGUGAUGUUCGUUUAUUUUAA [JR_SSTheophyA_Sub003] | 57.3 | 83.3 | 64 | 112 | 54
21 | AAUAAGCGCGGAAGGAGCGCCGCCAGUGAUGUUGGGAGUUAGAUACCAGUGAUGUUGGGCCGGCAGGUAGGUCGCCGCAAAGCUU [Exclusion Arginine B Gf 14] | 208 | 86.5 | 165 | 137 | 138
